Results reported in patent publication US20180194839A1 (Novartis, published 2018).

Tests used:
[1] = target: T1, recombinant human IL-17A (SEQ ID NO: 76) (human, UniProt Q16552 24-155, limits assumed); assay: cell-based or functional assay
T1 sequence: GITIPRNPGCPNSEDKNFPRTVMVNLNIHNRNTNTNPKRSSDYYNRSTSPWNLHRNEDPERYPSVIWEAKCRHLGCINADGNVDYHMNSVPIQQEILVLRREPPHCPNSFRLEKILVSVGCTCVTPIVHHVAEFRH

[2] = target: T2, human IL-17A (construct not stated) (human, UniProt Q16552 24-155, limits assumed); assay: cell-based or functional assay
T2 sequence: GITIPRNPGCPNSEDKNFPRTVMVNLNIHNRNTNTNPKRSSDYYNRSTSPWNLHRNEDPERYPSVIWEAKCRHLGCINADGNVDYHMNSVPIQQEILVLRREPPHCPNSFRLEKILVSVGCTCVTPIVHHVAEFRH

[3] = target: T3, recombinant cynomolgus IL-17A (SEQ ID NO: 79) (cynomolgus monkey, UniProt Q16552 24-155 (human entry), limits assumed); assay: SPR (Biacore), captured antibody, antigen as analyte
T3 construct: also called cynoIL-17A; cyno IL-17A
T3 chain: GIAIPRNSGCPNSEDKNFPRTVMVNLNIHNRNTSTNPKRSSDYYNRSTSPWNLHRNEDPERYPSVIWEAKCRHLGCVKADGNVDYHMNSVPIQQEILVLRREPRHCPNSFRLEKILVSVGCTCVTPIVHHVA

[4] = target: T4, recombinant human IL-17A/F heterodimer (human, UniProt Q16552 24-155; Q96PD4 31-163, limits assumed); assay: as above
T4 construct: heterodimer of an IL-17A subunit and an IL-17F subunit; also called huIL-17A/F; rhuIL-17A/F
T4 sequence (looked up) 1: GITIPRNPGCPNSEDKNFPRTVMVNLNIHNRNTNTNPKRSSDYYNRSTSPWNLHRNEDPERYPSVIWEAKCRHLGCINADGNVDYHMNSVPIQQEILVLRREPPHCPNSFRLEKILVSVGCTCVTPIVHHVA
T4 sequence (looked up) 2: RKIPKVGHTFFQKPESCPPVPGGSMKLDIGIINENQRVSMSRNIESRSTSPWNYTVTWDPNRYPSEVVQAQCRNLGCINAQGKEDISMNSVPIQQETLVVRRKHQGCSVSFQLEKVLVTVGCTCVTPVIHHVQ

[5] = target: T5, recombinant human IL-17A (SEQ ID NO: 78) (human, UniProt Q16552 24-155, limits assumed); assay: as above
T5 construct: homodimer; also called huIL-17A; hulL-17A
T5 sequence: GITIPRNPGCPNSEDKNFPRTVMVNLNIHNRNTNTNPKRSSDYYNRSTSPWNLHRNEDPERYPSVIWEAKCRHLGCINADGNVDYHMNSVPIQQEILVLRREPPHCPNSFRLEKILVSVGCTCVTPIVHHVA

[6] = target: T6, recombinant rat IL-17A (SEQ ID NO: 85) (rat, UniProt Q61453 18-150); assay: as above
T6 construct: also called rratIL-17A; rIL-17A
T6 sequence: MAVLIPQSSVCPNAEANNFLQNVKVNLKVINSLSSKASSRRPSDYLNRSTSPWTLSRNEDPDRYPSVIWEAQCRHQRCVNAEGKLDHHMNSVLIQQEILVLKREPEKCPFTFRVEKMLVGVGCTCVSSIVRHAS

[7] = target: T7, recombinant mouse IL-17A (SEQ ID NO: 83) (mouse, UniProt Q62386 26-158); assay: as above
T7 construct: also called mIL-17A; rmIL-17A
T7 sequence: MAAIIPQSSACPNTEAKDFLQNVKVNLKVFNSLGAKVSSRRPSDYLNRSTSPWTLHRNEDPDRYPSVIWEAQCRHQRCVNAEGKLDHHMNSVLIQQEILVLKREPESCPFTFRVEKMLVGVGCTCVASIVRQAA

[8] = target: T1, recombinant human IL-17A (SEQ ID NO: 76); assay: cell-based or functional assay; remark: listed apart in the source
[9] = target: T7, recombinant mouse IL-17A (SEQ ID NO: 83); assay: cell-based or functional assay

B1: XAB3 (antibody, human IgG1, kappa, V domains shown)
VH: EVQLVESGGDLVQPGGSLRLSCAASGFTFSSYWMSWVRQAPGKGLEWVANIKQDGSEKYYVDSVKGRFTISRDNAKNSLYLQMNSLRAEDTAVYYCARDRGSLYYWGQGTLVTVSS
VL: AIQLTQSPSSLSASVGDRVTITCRPSQGIYWELAWYQQKPGKAPKLLIYDASSLEQGVPSRFSGSGSGTDFTLTISSLQPEDFATYYCQQFNSYPLTFGGGTKVEIKR
notes: also called MB468 N56Q
In the case of B1, the “IC50, huGROα secretion by BJ cells; stimulus rhuIL-17A (0.5 nM)” value [1] is reported as 420 pM, the “EC50, in vitro neutralization activity, T = 0 weeks” value [2] is reported as 0.04 µg/mL and the “EC50, in vitro neutralization activity, T = 4 weeks at pH 8, 40°C (forced deamidation)” value [2] is reported as 40 ng/ml. For the same binder, the Kd [3] was 34.9 pM, the koff [3] was 4.23e-05 s⁻¹ and the kon [3] was 1.21e+06 M⁻¹ s⁻¹. It also gave a Kd [4] of 32.9 pM, a koff [4] of 0.000103 s⁻¹ and a kon [4] of 3.37e+06 M⁻¹ s⁻¹. The Kd [5] was 9.58 pM, the koff [5] was 5.01e-05 s⁻¹ and the kon [5] was 5.48e+06 M⁻¹ s⁻¹. The Kd [6] was 82.6 pM, the koff [6] was 7.59e-05 s⁻¹ and the kon [6] was 905000 M⁻¹ s⁻¹. It also gave a Kd [7] of 174 pM, a koff [7] of 0.000101 s⁻¹ and a kon [7] of 587000 M⁻¹ s⁻¹. For the same binder, the “IC50, huIL-6 secretion by BJ cells; stimulus rhuIL-17A (0.5 nM)” value [8] was 500 pM and the “IC50, KC secretion by CMT-93 cells; stimulus mIL-17A (0.15 nM)” value [9] was less than 1000 pM.
